Reference: patent US20250243261A1

B1: MEDI8852 UCA VH V65P/VL G95P IgG (antibody, V domains shown)
VH: QVQLQQSGPGLVKPSQTLSLTCAISGDSVSSNSAAWNWIRQSPSRGLEWLGRTYYRSKWYNDYAPSVKSRITINPDTSKNQFSLQLNSVTPEDTAVYYCARGGHITIFGVNIDAFDIWGQGTMVTVSS
VL: DIQMTQSPSSLSASVGDRVTITCRASQSISSYLNWYQQKPGKAPKLLIYAASSLQSGVPSRFSGSGSGTDFTLTISSLQPEDFATYYCQQSRTFPQGTKVEIK
B2: mAb114 VH D42G-A68T-S79Y IgG (antibody, V domains shown)
VH: EVQLVESGGGLIQPGGSLRLSCAASGFALRMYDMHWVRQTIGKRLEWVSAVGPSGDTYYADSVKGRFTVSRENAKNSLYLQMNSLTAGDTAIYYCVRSDRGVAGLFDSWGQGILVTVSS
VL: DIQMTQSPSSLSASVGDRITITCRASQAFDNYVAWYQQRPGKVPKLLISAASALHAGVPSRFSGSGSGTHFTLTISSLQPEDVATYYCQNYNSAPLTFGGGTKVEIK
B3: mAb114 VH I41P-D42G-A68T-S79Y-I113T IgG (antibody, V domains shown)
VH: EVQLVESGGGLIQPGGSLRLSCAASGFALRMYDMHWVRQTPGKRLEWVSAVGPSGDTYYADSVKGRFTVSRENAKNSLYLQMNSLTAGDTAIYYCVRSDRGVAGLFDSWGQGTLVTVSS
VL: DIQMTQSPSSLSASVGDRITITCRASQAFDNYVAWYQQRPGKVPKLLISAASALHAGVPSRFSGSGSGTHFTLTISSLQPEDVATYYCQNYNSAPLTFGGGTKVEIK
B4: mAb114 VH I41P-D42G-A68T-S79Y-I113T / VL V43A IgG (antibody, V domains shown)
VH: EVQLVESGGGLIQPGGSLRLSCAASGFALRMYDMHWVRQTPGKRLEWVSAVGPSGDTYYADSVKGRFTVSRENAKNSLYLQMNSLTAGDTAIYYCVRSDRGVAGLFDSWGQGTLVTVSS
VL: DIQMTQSPSSLSASVGDRITITCRASQAFDNYVAWYQQRPGKAPKLLISAASALHAGVPSRFSGSGSGTHFTLTISSLQPEDVATYYCQNYNSAPLTFGGGTKVEIK
B5: mAb114 VH A68T-E72D-S79Y-I113T / VL V43A IgG (antibody, V domains shown)
VH: EVQLVESGGGLIQPGGSLRLSCAASGFALRMYDMHWVRQTIDKRLEWVSAVGPSGDTYYADSVKGRFTVSRDNAKNSLYLQMNSLTAGDTAIYYCVRSDRGVAGLFDSWGQGTLVTVSS
VL: DIQMTQSPSSLSASVGDRITITCRASQAFDNYVAWYQQRPGKAPKLLISAASALHAGVPSRFSGSGSGTHFTLTISSLQPEDVATYYCQNYNSAPLTFGGGTKVEIK
B6: mAb114 VH A68T-I113T / VL V43A IgG (antibody, V domains shown)
VH: EVQLVESGGGLIQPGGSLRLSCAASGFALRMYDMHWVRQTIDKRLEWVSAVGPSGDTYYADSVKGRFTVSRENAKNSLSLQMNSLTAGDTAIYYCVRSDRGVAGLFDSWGQGTLVTVSS
VL: DIQMTQSPSSLSASVGDRITITCRASQAFDNYVAWYQQRPGKAPKLLISAASALHAGVPSRFSGSGSGTHFTLTISSLQPEDVATYYCQNYNSAPLTFGGGTKVEIK

Each binder was assayed against HA H4 Hubei, A/swine/Hubei/06/2009(H4N1) (Influenza A virus) (assay: not given).

Question: For B1, which Kd is on record?
Answer: 100 nM

Each binder was assayed against full-length Ebola GP on pseudotyped lentivirus (Zaire ebolavirus) (UniProt Q05320) (assay: cell-based or functional assay).

Question: How did the Ebola GP pseudotyped lentivirus IC50 turn out when B2 was run?
Answer: 1.2 nM

Question: Which Ebola GP pseudotyped lentivirus IC50 does the source give for B3 here?
Answer: 1.2 nM

Question: With B4 as the binder, how does the Ebola GP pseudotyped lentivirus IC50 read?
Answer: 1 nM

Question: Which Ebola GP pseudotyped lentivirus IC50 does the source give for B5 here?
Answer: 1.2 nM

Question: With B6 as the binder, how does the Ebola GP pseudotyped lentivirus IC50 read?
Answer: 1.1 nM
